# Test results as given in paper PMC2996049 (Structure (London, England : 1993), 2010).
# Molecular target: the molecule itself
# Test: SEC
protein,measurement,value
"Full-length His6-tagged NrpR from Methanococcus maripaludis (MmNrpR) (natural protein, UniProt Q6LZL7 1-536, looked up) MDSNIDVEILSILSEASAPVGAKIIADSLKDRGYDIGERAVRYHLKVLDENSLTKKLGYSGREITEKGIEELEKANISFRIGSVFSQVIEKLYLSDFPSKVLINTAKFEGDYKTIKEMVLRSFEAGYSVGDYLNIKKKGNTVSVETLCSITFDNFLLKNGIIPTPEYGGIVKFEDYEPVNFEGVIDFKSSSIDPLVAFIMQGKTDVIGVIENGEGLVPANFRVIPKSSEKQFETILKKDMLNSVLAYGTENVLGMNLNPEQIGVVLVGGLTPLCVPHESGYTADISAATQLKDISSMEKKTKGFLEAKKKKGKFKVTPVLSKMLSKMQTINYDIEDKKGNVVVNTAKIPIEYKEEAINALKDSYENKLAISDRLKVECDDKFLNAYTICSLTVDGVFLKNKIPVIPYYGGILEVKADKKRFIEAIDYEGTSLDPHEVFFNKADGKNYILAGIRKVPMSASEKLIELNEKLGWNSIIEIGRPNNDICGVRVEKCMFGITTIGGTNPFANIRKNNIPVEMKTLHKSIDYSELTHYDDI",stoichiometry N,2
